# According to PMC11003968 (Scientific Reports, 2024):
# B1: Human hemoglobin A (oxyhemoglobin) (complex)
# chain 1: not shown
# chain 2: not shown
# Target: IsdB Y165A, site-directed mutant of Staphylococcus aureus IsdB (Staphylococcus aureus, UniProt Q2FZF0 41-613, Y165A)
# Test: ELISA
# Details: both partners purified
binder,measurement,value
B1,Kd,80 ± 11 µM
